According to US20160200782A1:

What was measured:
Assay in all cases: cell-based or functional assay
ROCK-II(h) (human) = ROCK-II(h) (human) (UniProt O75116)
PRK2(h) (human) = PRK2(h) (human) (UniProt Q16513)
PKCτ(h) (human) = biological target: PKCτ(h) (human)
Flt1(h) (human) = Flt1(h) (human) (UniProt P17948)
CaMKIδ(h) (human) = CaMKIδ(h) (human) (UniProt Q8IU85)
SRPK2(h) (human) = SRPK2(h) (human) (UniProt P78362)
MSSK1(h) (human) = MSSK1(h) (human) (UniProt Q9UPE1)
IKKβ(h) (human) = IKKβ(h) (human) (UniProt O14920)
Met(Y1248C)(h) (human) = Met(Y1248C)(h) (human) (UniProt P08581)
Rsk2(h) (human) = Rsk2(h) (human) (UniProt P51812)
CDK5/p35(h) (human) = CDK5/p35(h) (human) (UniProt Q00535)
PKCµ(h) (human) = PKCµ(h) (human) (UniProt Q15139)
ACK1(h) (human) = ACK1(h) (human) (UniProt Q07912)
EphA7(h) (human) = EphA7(h) (human) (UniProt Q15375)
SIK(h) (human) = SIK(h) (human) (UniProt P57059)
CK1δ(h) (human) = CK1δ(h) (human) (UniProt P48730)
MuSK(h) (human) = MuSK(h) (human) (UniProt O15146)
PDGFRα(V561D)(h) (human) = PDGFRα(V561D)(h) (human) (UniProt P16234)
IR(h), activated (human) = IR(h), activated (human) (UniProt P06213)
MEK1(h) (human) = MEK1(h) (human) (UniProt Q02750)
cKit(D816V)(h) (human) = cKit(D816V)(h) (human) (UniProt P10721)
PAK4(h) (human) = PAK4(h) (human) (UniProt O96013)
MSK2(h) (human) = MSK2(h) (human) (UniProt O75676)
Mnk2(h) (human) = Mnk2(h) (human) (UniProt Q9HBH9)
Lck(h) (human) = Lck(h) (human) (UniProt P06239)
CSK(h) (human) = CSK(h) (human) (UniProt P41240)
[1] = biological target: EGFR(T790M,L858R)(h) (human) (UniProt P00533)
GRK7(h) (human) = GRK7(h) (human) (UniProt Q8WTQ7)
CK2(h) (human) = biological target: CK2(h) (human)
Rsk1(h) (human) = Rsk1(h) (human) (UniProt Q15418)
GCK(h) (human) = GCK(h) (human) (UniProt Q12851)
Plk3(h) (human) = Plk3(h) (human) (UniProt Q9H4B4)
PKCβII(h) (human) = PKCβII(h) (human) (UniProt P05771)
Fes(h) (human) = Fes(h) (human) (UniProt P07332)
FGFR2(h) (human) = FGFR2(h) (human) (UniProt P21802)
FAK(h) (human) = FAK(h) (human) (UniProt Q05397)
Bmx(h) (human) = Bmx(h) (human) (UniProt P51813)
PTK5(h) (human) = PTK5(h) (human) (UniProt P42685)
TAO2(h) (human) = TAO2(h) (human) (UniProt Q9UL54)
CDK2/cyclinE(h) (human) = CDK2/cyclinE(h) (human) (UniProt P24941)
Ros(h) (human) = Ros(h) (human) (UniProt P08922)
SGK3(h) (human) = SGK3(h) (human) (UniProt Q96BR1)
cKit(V654A)(h) (human) = cKit(V654A)(h) (human) (UniProt P10721)
CDK5/p25(h) (human) = CDK5/p25(h) (human) (UniProt Q00535)
ULK2(h) (human) = ULK2(h) (human) (UniProt Q8IYT8)
Ab1(H396P)(h) (human) = Ab1(H396P)(h) (human) (UniProt P00519)
Lck(h) activated (human) = Lck(h) activated (human) (UniProt P06239)
Ret(h) (human) = Ret(h) (human) (UniProt P07949)
PKCθ(h) (human) = PKCθ(h) (human) (UniProt Q04759)
MELK(h) (human) = MELK(h) (human) (UniProt Q14680)
mTOR/FKBP12(h) (human) = mTOR/FKBP12(h) (human) (UniProt P42345)
Pim-2(h) (human) = Pim-2(h) (human) (UniProt Q9P1W9)
PAK5(h) (human) = PAK5(h) (human) (UniProt Q9P286)
EphA8(h) (human) = EphA8(h) (human) (UniProt P29322)
mTOR(h) (human) = mTOR(h) (human) (UniProt P42345)
PKBγ(h) (human) = PKBγ(h) (human) (UniProt Q9Y243)
EphB4(h) (human) = EphB4(h) (human) (UniProt P54760)
EphB4(h) (human), sequence (P54760 561-987 limits assumed): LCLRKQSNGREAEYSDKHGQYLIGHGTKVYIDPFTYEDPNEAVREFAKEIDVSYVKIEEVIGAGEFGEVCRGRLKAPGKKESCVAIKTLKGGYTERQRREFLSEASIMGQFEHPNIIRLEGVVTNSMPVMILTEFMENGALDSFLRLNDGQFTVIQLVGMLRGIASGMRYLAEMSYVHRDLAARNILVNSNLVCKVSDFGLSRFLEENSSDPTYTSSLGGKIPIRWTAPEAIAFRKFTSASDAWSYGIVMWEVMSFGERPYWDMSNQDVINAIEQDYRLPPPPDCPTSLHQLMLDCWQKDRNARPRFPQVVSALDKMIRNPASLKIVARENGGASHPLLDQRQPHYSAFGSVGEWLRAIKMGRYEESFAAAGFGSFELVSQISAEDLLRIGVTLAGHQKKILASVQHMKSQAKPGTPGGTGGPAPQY

FAK(h) (human), sequence (Q05397 whole entry): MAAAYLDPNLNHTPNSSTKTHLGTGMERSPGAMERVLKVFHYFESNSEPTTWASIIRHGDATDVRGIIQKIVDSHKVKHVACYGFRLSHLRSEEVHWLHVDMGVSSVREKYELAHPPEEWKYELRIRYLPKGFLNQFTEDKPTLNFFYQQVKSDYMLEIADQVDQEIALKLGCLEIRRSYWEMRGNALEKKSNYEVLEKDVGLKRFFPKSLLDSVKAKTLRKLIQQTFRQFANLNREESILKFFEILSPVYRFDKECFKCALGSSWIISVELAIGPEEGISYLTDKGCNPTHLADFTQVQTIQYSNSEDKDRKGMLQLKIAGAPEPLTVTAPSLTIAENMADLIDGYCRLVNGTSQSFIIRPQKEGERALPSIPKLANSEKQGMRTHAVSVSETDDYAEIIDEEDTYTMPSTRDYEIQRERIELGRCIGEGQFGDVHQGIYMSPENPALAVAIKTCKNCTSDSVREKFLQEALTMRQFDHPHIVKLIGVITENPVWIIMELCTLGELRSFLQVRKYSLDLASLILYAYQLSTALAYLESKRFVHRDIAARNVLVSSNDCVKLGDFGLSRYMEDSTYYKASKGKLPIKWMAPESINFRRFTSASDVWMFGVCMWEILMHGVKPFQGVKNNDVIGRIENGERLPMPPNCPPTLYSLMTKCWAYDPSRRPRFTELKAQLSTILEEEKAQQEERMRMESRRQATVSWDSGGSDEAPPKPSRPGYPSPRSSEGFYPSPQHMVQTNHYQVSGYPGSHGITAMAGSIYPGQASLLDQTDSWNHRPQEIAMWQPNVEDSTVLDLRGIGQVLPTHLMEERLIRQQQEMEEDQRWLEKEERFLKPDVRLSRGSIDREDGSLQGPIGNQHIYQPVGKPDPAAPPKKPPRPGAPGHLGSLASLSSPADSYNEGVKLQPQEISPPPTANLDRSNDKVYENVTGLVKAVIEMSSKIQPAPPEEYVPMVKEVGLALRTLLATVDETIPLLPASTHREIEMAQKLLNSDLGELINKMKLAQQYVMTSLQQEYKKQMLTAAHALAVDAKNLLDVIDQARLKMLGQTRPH
MSSK1(h) (human), sequence (Q9UPE1 whole entry): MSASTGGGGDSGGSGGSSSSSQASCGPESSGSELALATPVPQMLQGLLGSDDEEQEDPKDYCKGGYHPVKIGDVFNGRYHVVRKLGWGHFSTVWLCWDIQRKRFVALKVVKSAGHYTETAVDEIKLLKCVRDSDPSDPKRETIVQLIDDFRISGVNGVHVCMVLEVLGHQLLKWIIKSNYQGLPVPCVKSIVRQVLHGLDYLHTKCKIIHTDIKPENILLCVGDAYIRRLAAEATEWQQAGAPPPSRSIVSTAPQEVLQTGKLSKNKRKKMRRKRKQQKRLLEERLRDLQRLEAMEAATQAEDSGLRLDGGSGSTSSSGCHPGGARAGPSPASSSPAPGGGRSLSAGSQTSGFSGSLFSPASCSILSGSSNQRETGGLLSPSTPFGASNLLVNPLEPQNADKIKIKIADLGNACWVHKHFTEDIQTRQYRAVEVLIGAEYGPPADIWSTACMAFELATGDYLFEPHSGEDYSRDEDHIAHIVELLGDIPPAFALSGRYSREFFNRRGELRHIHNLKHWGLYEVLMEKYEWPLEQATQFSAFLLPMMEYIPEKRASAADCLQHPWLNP
TAO2(h) (human), sequence (Q9UL54 1-314 limits assumed): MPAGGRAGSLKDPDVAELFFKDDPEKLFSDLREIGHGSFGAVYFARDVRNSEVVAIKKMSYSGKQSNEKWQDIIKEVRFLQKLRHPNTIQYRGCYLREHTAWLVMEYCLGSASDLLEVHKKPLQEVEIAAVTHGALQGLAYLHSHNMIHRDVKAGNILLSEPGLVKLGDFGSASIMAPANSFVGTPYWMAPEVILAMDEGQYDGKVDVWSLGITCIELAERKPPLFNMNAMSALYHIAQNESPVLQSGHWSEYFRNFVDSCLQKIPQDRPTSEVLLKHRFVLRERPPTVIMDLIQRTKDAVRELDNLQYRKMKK
PDGFRα(V561D)(h) (human), sequence (P16234 550-1089 V561D limits assumed): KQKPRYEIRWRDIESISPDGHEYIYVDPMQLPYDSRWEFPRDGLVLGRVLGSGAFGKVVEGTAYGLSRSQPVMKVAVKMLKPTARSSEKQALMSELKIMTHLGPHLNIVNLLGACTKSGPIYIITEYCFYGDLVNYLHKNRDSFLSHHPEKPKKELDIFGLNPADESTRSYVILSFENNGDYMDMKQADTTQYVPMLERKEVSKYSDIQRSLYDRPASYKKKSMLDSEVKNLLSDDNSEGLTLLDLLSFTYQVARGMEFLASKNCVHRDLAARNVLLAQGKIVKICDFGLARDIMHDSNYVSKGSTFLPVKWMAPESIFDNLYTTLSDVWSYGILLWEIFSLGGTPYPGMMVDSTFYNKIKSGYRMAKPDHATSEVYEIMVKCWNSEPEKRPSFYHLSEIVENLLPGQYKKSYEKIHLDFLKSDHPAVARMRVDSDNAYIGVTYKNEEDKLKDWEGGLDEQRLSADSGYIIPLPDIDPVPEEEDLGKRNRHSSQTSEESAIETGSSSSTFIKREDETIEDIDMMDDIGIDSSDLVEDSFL
Ret(h) (human), sequence (P07949 658-1114 limits assumed): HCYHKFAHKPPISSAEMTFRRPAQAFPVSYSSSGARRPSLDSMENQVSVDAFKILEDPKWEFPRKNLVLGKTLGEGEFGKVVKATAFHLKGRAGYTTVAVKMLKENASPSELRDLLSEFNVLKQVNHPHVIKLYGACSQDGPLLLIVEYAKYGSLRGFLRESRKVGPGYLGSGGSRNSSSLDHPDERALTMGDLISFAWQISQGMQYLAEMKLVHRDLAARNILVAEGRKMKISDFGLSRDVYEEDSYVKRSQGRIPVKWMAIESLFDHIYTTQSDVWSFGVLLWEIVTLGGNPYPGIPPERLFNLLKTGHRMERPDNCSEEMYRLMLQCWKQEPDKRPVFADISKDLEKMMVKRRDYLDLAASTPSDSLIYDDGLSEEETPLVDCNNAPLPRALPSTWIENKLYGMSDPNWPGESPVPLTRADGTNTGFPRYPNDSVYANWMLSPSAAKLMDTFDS
Lck(h) activated (human), sequence (P06239 whole entry): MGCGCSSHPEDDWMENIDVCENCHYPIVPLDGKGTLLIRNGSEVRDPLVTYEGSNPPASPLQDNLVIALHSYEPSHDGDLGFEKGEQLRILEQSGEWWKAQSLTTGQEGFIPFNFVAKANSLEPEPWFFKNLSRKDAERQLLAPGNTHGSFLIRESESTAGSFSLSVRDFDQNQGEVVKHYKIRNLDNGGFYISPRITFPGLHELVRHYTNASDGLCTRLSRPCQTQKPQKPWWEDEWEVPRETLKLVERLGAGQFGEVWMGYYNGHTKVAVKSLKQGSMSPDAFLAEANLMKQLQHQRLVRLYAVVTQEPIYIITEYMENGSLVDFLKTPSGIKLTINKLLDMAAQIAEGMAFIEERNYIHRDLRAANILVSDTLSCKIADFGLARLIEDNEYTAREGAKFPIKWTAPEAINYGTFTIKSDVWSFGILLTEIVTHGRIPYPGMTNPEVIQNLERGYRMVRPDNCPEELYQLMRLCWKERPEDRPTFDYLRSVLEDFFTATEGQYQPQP
Lck(h) (human), sequence (P06239 whole entry): as above
PAK4(h) (human), sequence (O96013 whole entry): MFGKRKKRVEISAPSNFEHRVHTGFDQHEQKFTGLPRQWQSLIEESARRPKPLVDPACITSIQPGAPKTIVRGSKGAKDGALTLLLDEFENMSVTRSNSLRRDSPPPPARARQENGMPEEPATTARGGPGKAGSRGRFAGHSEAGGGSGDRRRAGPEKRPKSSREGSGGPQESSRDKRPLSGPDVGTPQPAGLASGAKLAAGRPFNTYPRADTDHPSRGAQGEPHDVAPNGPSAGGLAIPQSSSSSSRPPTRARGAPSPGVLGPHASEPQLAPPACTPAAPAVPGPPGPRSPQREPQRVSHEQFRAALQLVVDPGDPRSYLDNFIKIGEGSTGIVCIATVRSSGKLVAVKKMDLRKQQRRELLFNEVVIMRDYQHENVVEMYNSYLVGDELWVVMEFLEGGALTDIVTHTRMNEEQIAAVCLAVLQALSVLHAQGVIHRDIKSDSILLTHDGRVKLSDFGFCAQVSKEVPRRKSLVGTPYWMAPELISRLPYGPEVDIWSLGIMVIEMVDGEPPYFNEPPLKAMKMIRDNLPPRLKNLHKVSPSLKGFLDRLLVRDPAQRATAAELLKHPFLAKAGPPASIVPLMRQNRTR
Ros(h) (human), sequence (P08922 1883-2347 limits assumed): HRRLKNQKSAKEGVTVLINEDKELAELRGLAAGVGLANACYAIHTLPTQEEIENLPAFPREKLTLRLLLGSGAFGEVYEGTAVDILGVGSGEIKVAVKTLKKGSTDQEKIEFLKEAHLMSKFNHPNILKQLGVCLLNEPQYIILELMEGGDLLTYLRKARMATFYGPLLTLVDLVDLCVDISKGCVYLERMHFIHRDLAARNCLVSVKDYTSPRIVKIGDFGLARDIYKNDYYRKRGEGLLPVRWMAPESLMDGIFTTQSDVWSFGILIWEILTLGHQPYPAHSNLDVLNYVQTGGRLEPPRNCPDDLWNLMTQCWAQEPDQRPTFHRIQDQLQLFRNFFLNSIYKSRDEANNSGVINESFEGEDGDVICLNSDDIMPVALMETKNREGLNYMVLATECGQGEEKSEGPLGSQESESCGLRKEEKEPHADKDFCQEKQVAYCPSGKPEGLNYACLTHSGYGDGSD

MMI-0100 (peptide)
% activity (ROCK-II(h) (human)): 102% | % activity (PRK2(h) (human)): 72% | % activity (PKCτ(h) (human)): 110% | % activity (Flt1(h) (human)): 109% | % activity (CaMKIδ(h) (human)): 59% | % activity (SRPK2(h) (human)): 92% | % activity (MSSK1(h) (human)): 82% | % activity (IKKβ(h) (human)): 105% | % activity (Met(Y1248C)(h) (human)): 77% | % activity (Rsk2(h) (human)): 65% | % activity (CDK5/p35(h) (human)): 94% | % activity (PKCµ(h) (human)): 79% | % activity (ACK1(h) (human)): 106% | % activity (EphA7(h) (human)): 193% | % activity (SIK(h) (human)): 113% | % activity (CK1δ(h) (human)): 115% | % activity (MuSK(h) (human)): 85% | % activity (PDGFRα(V561D)(h) (human)): 58% | % activity (IR(h), activated (human)): 127% | % activity (MEK1(h) (human)): 86% | % activity (cKit(D816V)(h) (human)): 117% | % activity (PAK4(h) (human)): 92% | % activity (MSK2(h) (human)): 105% | % activity (Mnk2(h) (human)): 94% | % activity (Lck(h) (human)): 346% | % activity (CSK(h) (human)): 70% | % activity [1]: 93% | % activity (GRK7(h) (human)): 111% | % activity (CK2(h) (human)): 90% | % activity (Rsk1(h) (human)): 86% | % activity (GCK(h) (human)): 98% | % activity (Plk3(h) (human)): 107% | % activity (PKCβII(h) (human)): 102% | % activity (Fes(h) (human)): 44% | % activity (FGFR2(h) (human)): 49% | % activity (FAK(h) (human)): 98% | % activity (Bmx(h) (human)): 62% | % activity (PTK5(h) (human)): 135% | % activity (TAO2(h) (human)): 95% | % activity (CDK2/cyclinE(h) (human)): 106% | % activity (Ros(h) (human)): 107% | % activity (SGK3(h) (human)): 95% | % activity (cKit(V654A)(h) (human)): 69% | % activity (CDK5/p25(h) (human)): 114% | % activity (ULK2(h) (human)): 123% | % activity (Ab1(H396P)(h) (human)): 130% | % activity (Lck(h) activated (human)): 106% | % activity (Ret(h) (human)): 108% | % activity (PKCθ(h) (human)): 102% | % activity (MELK(h) (human)): 74% | % activity (mTOR/FKBP12(h) (human)): 117% | % activity (Pim-2(h) (human)): 117% | % activity (PAK5(h) (human)): 97% | % activity (EphA8(h) (human)): 181% | % activity (mTOR(h) (human)): 102% | % activity (PKBγ(h) (human)): 105% | % activity (EphB4(h) (human)): 62%
